From patent US20240327497A1
Numbering of substitutions follows the chain as printed. Names may count otherwise. “And” between values parts separate entries of the source, which are not always exact repeats. Equal entries are not always repeated.

B1: canine IgGB Fc (CH2-CH3) P307A with N-terminal SASA tag (Fc fusion, part only; not given: SASA tag, not shown: another chain or arm of the molecule; small tags and cut ends)
Fc: APEMLGGPSVFIFPPKPKDTLLIARTPEVTCVVVDLDPEDPEVQISWFVDGKQMQTAKTQPREEQFNGTYRVVSVLAIGHQDWLKGKQFTCKVNNKALPSPIERTISKARGQAHQPSVYVLPPSREELSKNTVSLTCLIKDFFPPDIDVEWQSNGQQEPESKYRTTPPQLDEDGSYFLYSKLSVDKSRWQRGDTFICAVMHEALHNHYTQESLSHSPGK
B2: canine IgGB Fc (CH2-CH3) Q311A with N-terminal SASA tag (Fc fusion, part only; not given: SASA tag, not shown: another chain or arm of the molecule; small tags and cut ends)
Fc: B1 Fc with A77P, Q81A
B3: canine IgGB Fc (CH2-CH3) T250A with N-terminal SASA tag (Fc fusion, part only; not given: SASA tag, not shown: another chain or arm of the molecule; small tags and cut ends)
Fc: B1 Fc with T20A, A77P
B4: canine IgGB Fc (CH2-CH3) T286A with N-terminal SASA tag (Fc fusion, part only; not given: SASA tag, not shown: another chain or arm of the molecule; small tags and cut ends)
Fc: B1 Fc with T56A, A77P
B5: canine IgGB Fc (CH2-CH3) A254S with N-terminal SASA tag (Fc fusion, part only; not given: SASA tag, not shown: another chain or arm of the molecule; small tags and cut ends)
Fc: B1 Fc with A24S, A77P
B6: canine IgGB Fc (CH2-CH3) T256A with N-terminal SASA tag (Fc fusion, part only; not given: SASA tag, not shown: another chain or arm of the molecule; small tags and cut ends)
Fc: B1 Fc with T26A, A77P
B7: canine IgGB Fc (CH2-CH3) L252A with N-terminal SASA tag (Fc fusion, part only; not given: SASA tag, not shown: another chain or arm of the molecule; small tags and cut ends)
Fc: B1 Fc with L22A, A77P
B8: canine IgGB Fc (CH2-CH3) G309A with N-terminal SASA tag (Fc fusion, part only; not given: SASA tag, not shown: another chain or arm of the molecule; small tags and cut ends)
Fc: B1 Fc with A77P, G79A
B9: canine IgGB Fc (CH2-CH3) H433A with N-terminal SASA tag (Fc fusion, part only; not given: SASA tag, not shown: another chain or arm of the molecule; small tags and cut ends)
Fc: B1 Fc with A77P, H205A
B10: anti-NGF canine IgGB antibody, Fc variant A426H (antibody, part only; not given: Anti-NGF variable domains, not shown: another chain or arm of the molecule; small tags and cut ends)
Fc: B1 Fc with A77P, A198H
B11: anti-NGF canine IgGB antibody, Fc variant A426Y (antibody, part only; not given: Anti-NGF variable domains, not shown: another chain or arm of the molecule; small tags and cut ends)
Fc: B1 Fc with A77P, A198Y
B12: anti-NGF canine IgGB antibody, Fc variant A426H + Y436H (antibody, part only; not given: anti-NGF variable domains and light chain, not shown: another chain or arm of the molecule; small tags and cut ends)
Fc: B1 Fc with A77P, A198H, Y208H
B13: anti-NGF canine IgGB antibody, Fc variant A426Y + T286L + Y436H (antibody, part only; not given: anti-NGF variable domains and light chain, not shown: another chain or arm of the molecule)
Fc: B1 Fc with T56L, A77P, A198Y, Y208H
B14: anti-NGF canine IgGB antibody, Fc variant A426Y + Y436H (antibody, part only; not given: anti-NGF variable domains and light chain, not shown: another chain or arm of the molecule; small tags and cut ends)
Fc: B1 Fc with A77P, A198Y, Y208H
B15: canine IgGB Fc (CH2-CH3) N434H with N-terminal SASA tag (Fc fusion, part only; not given: SASA tag, not shown: another chain or arm of the molecule; small tags and cut ends)
Fc: B1 Fc with A77P, N206H
B16: canine IgGA antibody with wild-type IgGA Fc and the variable domain of Gearing et al. 2013 (antibody, part only; not given: variable domains and light chain, not shown: another chain or arm of the molecule; small tags and cut ends)
Fc: VPEPLGGPSVLIFPPKPKDILRITRTPEVTCVVLDLGREDPEVQISWFVDGKEVHTAKTQSREQQFNGTYRVVSVLPIEHQDWLTGKEFKCRVNHIDLPSPIERTISKARGRAHKPSVYVLPPSPKELSSSDTVSITCLIKDFYPPDIDVEWQSNGQQEPERKHRMTPPQLDEDGSYFLYSKLSVDKSRWQQGDPFTCAVMHETLQNHYTDLSLSHSPGK
B17: canine IgGA antibody, Fc variant A426Y, variable domain of Gearing et al. 2013 (antibody, part only; not given: Variable domains, not shown: another chain or arm of the molecule; small tags and cut ends)
Fc: B16 Fc with A199Y
B18: canine IgGA antibody, Fc variant A426H, variable domain of Gearing et al. 2013 (antibody, part only; not given: Variable domains, not shown: another chain or arm of the molecule; small tags and cut ends)
Fc: B16 Fc with A199H

Each binder was assayed against canine FcRn (FcRn large subunit with canine beta-2-microglobulin) (canine) (assay: SPR pH 5.5, SASA-Fc captured on BSA, FcRn 400 nM).

| Kd | WT KD Avg/Variant KD | koff | kon | Binder |
| --- | --- | --- | --- | --- |
| 0.325 µM and 0.338 µM | 1.74 and 1.67 | 1.23 s⁻¹ |  | B1 |
| 0.368 µM and 0.37 µM | 1.54 and 1.53 | 0.894 s⁻¹ and 0.496 s⁻¹ | 2.43e+06 M⁻¹ s⁻¹ and 1.34e+06 M⁻¹ s⁻¹ | B2 |
| 0.335 µM and 0.328 µM | 1.69 and 1.72 |  |  | B3 |
| 0.464 µM and 0.569 µM | 1.22 and 0.99 | 0.196 s⁻¹ and 0.304 s⁻¹ | 422000 M⁻¹ s⁻¹ and 533000 M⁻¹ s⁻¹ | B4 |
| 0.34 µM and 0.317 µM | 1.66 and 1.78 |  |  | B5 |
| 0.447 µM and 0.298 µM | 1.27 and 1.9 | 0.166 s⁻¹ |  | B6 |
| 0.292 µM and 0.24 µM | 1.94 and 2.36 |  |  | B7 |
| 0.245 µM and 0.294 µM | 2.31 and 1.92 |  |  | B8 |
| 0.266 µM and 0.359 µM | 2.13 and 1.58 | 0.229 s⁻¹ and 0.0997 s⁻¹ |  | B9 |

What follows are binders tested against canine FcRn (FcRn large subunit with canine beta-2-microglobulin) (canine) (assay: SPR pH 5.9, IgG coupled to C1 chip, 1:1 kinetic fit).

| Kd [µM] | koff [s⁻¹] | kon [M⁻¹ s⁻¹] | Binder |
| --- | --- | --- | --- |
| 0.115 | 0.142 | 1.24e+06 | B10 |
| 0.129 | 0.113 | 878000 | B11 |
| 0.161 | 0.13 | 808000 | B12 |
| 0.00726 | 0.0412 | 5.67e+06 | B13 |
| 0.0577 | 0.0608 | 1.06e+06 | B14 |

Each binder was assayed against canine FcRn (FcRn large subunit with canine beta-2-microglobulin) (canine) (assay: SPR pH 5.5, SASA-Fc captured on BSA, FcRn 100-800 nM).

| Kd [µM] | koff [s⁻¹] | kon [M⁻¹ s⁻¹] | Binder |
| --- | --- | --- | --- |
| 0.247 | 0.102 | 411000 | B15 |

What follows are binders tested against canine FcRn (FcRn large subunit with canine beta-2-microglobulin) (canine) (assay: SPR pH 6.0, IgG coupled to CM5, FcRn 50-800 nM).

| Kd [µM] | koff [s⁻¹] | kon [M⁻¹ s⁻¹] | Binder |
| --- | --- | --- | --- |
| 1.04 | 0.124 | 119000 | B10 |
| 1.13 | 0.134 | 119000 | B11 |
| 2.27 | 0.202 | 88700 | B12 |
| 0.507 | 0.0777 | 153000 | B14 |
| 5.97 | 0.187 | 31400 | B16 |
| 0.767 | 0.0375 | 48900 | B17 |
| 1.43 | 0.0591 | 41400 | B18 |
